Reference: US20250179210A1 (Merck KGaA, published 2025)
Positions count from the first letter of the chain named. Where two headings read alike, the source gives them in different places.

How the values were obtained:
[1] = molecular target: T1, human CEACAM5 expressed on human cancer cell lines (MKN-45, NCI-H441, SK-CO-1, SNU-16, LS174T) (human, UniProt P06731 35-685); experiment: cell-based or functional assay
T1 sequence: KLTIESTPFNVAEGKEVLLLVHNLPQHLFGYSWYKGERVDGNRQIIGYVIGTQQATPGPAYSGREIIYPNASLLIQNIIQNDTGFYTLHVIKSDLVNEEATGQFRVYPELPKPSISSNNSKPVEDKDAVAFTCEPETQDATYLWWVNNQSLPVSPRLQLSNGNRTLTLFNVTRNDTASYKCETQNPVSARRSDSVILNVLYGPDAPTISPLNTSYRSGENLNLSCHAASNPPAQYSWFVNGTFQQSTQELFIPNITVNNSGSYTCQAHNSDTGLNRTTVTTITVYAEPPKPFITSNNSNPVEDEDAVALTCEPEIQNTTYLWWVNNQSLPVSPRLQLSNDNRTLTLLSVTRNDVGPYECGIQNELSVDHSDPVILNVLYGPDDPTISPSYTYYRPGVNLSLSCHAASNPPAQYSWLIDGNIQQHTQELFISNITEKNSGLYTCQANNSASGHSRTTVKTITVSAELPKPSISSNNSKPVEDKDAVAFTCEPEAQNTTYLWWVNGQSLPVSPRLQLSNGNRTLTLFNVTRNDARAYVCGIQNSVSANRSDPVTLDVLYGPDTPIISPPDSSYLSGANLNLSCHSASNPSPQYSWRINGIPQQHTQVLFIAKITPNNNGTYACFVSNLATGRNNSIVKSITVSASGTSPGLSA

[2] = molecular target: T1, human CEACAM5 expressed on human cancer …; experiment: cell-based or functional assay; remark: listed apart in the source
[3] = molecular target: T1, human CEACAM5 expressed on human cancer …; experiment: cell-based or functional assay; remark: listed apart in the source
[4] = molecular target: T1, human CEACAM5 expressed on human cancer …; experiment: cell-based or functional assay; remark: listed apart in the source
[5] = molecular target: T1, human CEACAM5 expressed on human cancer …; experiment: flow cytometry on MKN-45 cells, antibody titrated
[6] = molecular target: T1, human CEACAM5 expressed on human cancer …; experiment: cellular binding on MKN45 cells (FIG. 2)
[7] = molecular target: T1, human CEACAM5 expressed on human cancer …; experiment: binding to MKN-45 cells

B1: ADC1 (mAb1-glucuronid-exatecan) (antibody, human IgG1, kappa)
heavy: EVQLQESGPGLVKPSQTLSLTCTVSDGSVSRGGYYLTWIRQHPGKGLEWIGYIYYSGSTYFNPSLRSRVTMSVDTSKNQFSLKLSSVTAADTAVYYCARGIAVAPFDYWGQGTLVTVSSASTKGPSVFPLAPSSKSTSGGTAALGCLVKDYFPEPVTVSWNSGALTSGVHTFPAVLQSSGLYSLSSVVTVPSSSLGTQTYICNVNHKPSNTKVDKRVEPKSCDKTHTCPPCPAPPVAGPSVFLFPPKPKDTLMISRTPEVTCVVVDVSHEDPEVKFNWYVDGVEVHNAKTKPREEQYNSTYRVVSVLTVLHQDWLNGKEYKCKVSNKALPSSIEKTISKAKGQPREPQVYTLPPSREEMTKNQVSLTCLVKGFYPSDIAVEWESNGQPENNYKTTPPVLDSDGSFFLYSKLTVDKSRWQQGNVFSCSVMHEALHNHYTQKSLSLSPG
light: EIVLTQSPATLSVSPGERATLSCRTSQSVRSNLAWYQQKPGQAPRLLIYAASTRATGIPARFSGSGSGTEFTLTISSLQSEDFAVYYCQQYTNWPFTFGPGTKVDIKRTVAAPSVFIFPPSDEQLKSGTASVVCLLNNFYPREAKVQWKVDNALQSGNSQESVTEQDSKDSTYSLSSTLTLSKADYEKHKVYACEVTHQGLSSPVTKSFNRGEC
modifications: drug-linker DL1 on the reduced interchain cysteine; drug-linker DL1 (maleimido-beta-glucuronide-exatecan) on sulfur of reduced interchain cysteines; DAR 7.9 for the whole antibody
In the case of B1, the “fold higher potency than ADC SAR DM4 against SK-CO-1 cells (viability assay)” value [1] is reported as 2.9 fold, the “IC50 [M], cell viability assay (Cell Titer-Glo, 6 days), LS174T cells” value (from here on “IC50 [M], cell viability assay … LS174T cells”) [2] is reported as 3.8e-10 M and the “IC50 [M], cell viability assay (Cell Titer-Glo, 6 days), MKN-45 cells” value (“IC50 [M], cell viability assay … MKN-45 cells” for short) [2] is reported as 6.2e-10 M. The “IC50 [M], cell viability assay (Cell Titer-Glo, 6 days), SK-CO-1 cells” value (“IC50 [M], cell viability assay … SK-CO-1 cells” for short) [2] was 8.5e-11 M and the “IC50 [M], cell viability assay (Cell Titer-Glo, 6 days), SNU-16 cells” value (from here on “IC50 [M], cell viability assay … SNU-16 cells”) [2] was 3.2e-10 M.

B2: ADC2 (mAb1-AAN-exatecan) (antibody, human IgG1, kappa)
heavy: B1 heavy
light: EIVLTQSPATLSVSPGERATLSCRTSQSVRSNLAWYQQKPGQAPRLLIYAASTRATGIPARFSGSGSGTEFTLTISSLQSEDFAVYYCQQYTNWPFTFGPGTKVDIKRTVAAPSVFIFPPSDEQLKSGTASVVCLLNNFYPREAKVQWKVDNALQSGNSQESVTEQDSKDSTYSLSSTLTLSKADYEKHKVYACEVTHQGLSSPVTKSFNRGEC
modifications: drug-linker DL2 on the reduced interchain cysteine; drug-linker DL2 (legumain-cleavable Ala-Ala-Asn linker, exatecan) on reduced interchain cysteines; DAR 7.6 for the whole antibody
B2 was tested, and the “fold higher potency than ADC SAR DM4 against SK-CO-1 cells (viability assay)” value [1] was 2.7 fold, the “IC50 [M], cell viability assay … LS174T cells” value [2] was 2.8e-10 M and the “IC50 [M], cell viability assay … MKN-45 cells” value [2] was 4.7e-10 M. For the same binder, the “IC50 [M], cell viability assay … SK-CO-1 cells” value [2] was 6.9e-11 M and the “IC50 [M], cell viability assay … SNU-16 cells” value [2] was 2.8e-10 M.

B3: ADC1-M (conjugate of mAb1-M with DL1) (antibody, human IgG1, kappa, L234A L235A)
heavy: EVQLQESGPGLVKPSQTLSLTCTVSDGSVSRGGYYLTWIRQHPGKGLEWIGYIYYSGSTYFNPSLRSRVTMSVDTSKNQFSLKLSSVTAADTAVYYCARGIAVAPFDYWGQGTLVTVSSASTKGPSVFPLAPSSKSTSGGTAALGCLVKDYFPEPVTVSWNSGALTSGVHTFPAVLQSSGLYSLSSVVTVPSSSLGTQTYICNVNHKPSNTKVDKRVEPKSCDKTHTCPPCPAPEAAGGPSVFLFPPKPKDTLYITREPEVTCVVVDVSHEDPEVKFNWYVDGVEVHNAKTKPREEQYNSTYRVVSVLTVLHQDWLNGKEYKCKVSNKALPAPIEKTISKAKGQPREPQVYTLPPSREEMTKNQVSLTCLVKGFYPSDIAVEWESNGQPENNYKTTPPVLDSDGSFFLYSKLTVDKSRWQQGNVFSCSVMHEALHNHYTQKSLSLSPG
light: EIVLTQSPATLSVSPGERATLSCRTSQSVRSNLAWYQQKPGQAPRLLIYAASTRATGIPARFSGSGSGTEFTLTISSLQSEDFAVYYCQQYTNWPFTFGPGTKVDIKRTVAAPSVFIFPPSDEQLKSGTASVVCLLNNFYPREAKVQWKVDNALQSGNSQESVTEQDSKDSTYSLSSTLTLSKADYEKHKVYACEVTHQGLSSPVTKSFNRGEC
modifications: DL1 by interchain cysteine conjugation; DL1 (maleimido-b-glucuronide-exatecan) by interchain cysteine conjugation; DAR 8.16
For B3, the “IC50 [M], cell viability assay … LS174T cells” value [3] was 6e-10 M, the “IC50 [M], cell viability assay … MKN-45 cells” value [3] was 5.2e-10 M and the “IC50 [M], cell viability assay … SK-CO-1 cells” value [3] was 7.6e-11 M. The “IC50 [M], cell viability assay … SNU-16 cells” value [3] was 3.6e-10 M, the “SPECIFICITY FACTOR (IC50 in CEACAM5-negative MDA-MB-231 divided by IC50 in MKN-45)” value [4] was 201 fold and the “SPECIFICITY FACTOR (IC50 in CEACAM5-negative MDA-MB-231 divided by IC50 in SK-CO-1)” value [4] was 874 fold. For the same binder, the “SPECIFICITY FACTOR (IC50 in CEACAM5-negative MDA-MB-231 divided by IC50 in SNU-16)” value [4] was 242 fold.

B4: ADC2-M (conjugate of mAb2-M with DL1-M) (antibody, human IgG1, kappa, L234A L235A)
heavy: B3 heavy
light: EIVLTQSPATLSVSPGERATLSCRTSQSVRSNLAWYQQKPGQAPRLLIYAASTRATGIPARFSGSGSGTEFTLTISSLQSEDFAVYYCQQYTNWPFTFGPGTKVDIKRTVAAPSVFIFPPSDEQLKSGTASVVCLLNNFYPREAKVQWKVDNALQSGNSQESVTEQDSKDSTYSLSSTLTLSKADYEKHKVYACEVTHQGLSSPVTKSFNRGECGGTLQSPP
modifications: MTG tag GGTLQSPP at the C-terminus is a conjugation site for DL1-M; DL1-M (NH2-GGG-b-glucuronide-exatecan) coupled by microbial transglutaminase; DAR 3.86 for the whole antibody; residues carrying the drug not stated
B4 was tested, and the “IC50 [M], cell viability assay … LS174T cells” value [3] was 8.5e-10 M, the “IC50 [M], cell viability assay … MKN-45 cells” value [3] was 1.2e-09 M and the “IC50 [M], cell viability assay … SK-CO-1 cells” value [3] was 1.1e-10 M. For the same binder, the “IC50 [M], cell viability assay … SNU-16 cells” value [3] was 5.1e-09 M, the “SPECIFICITY FACTOR (IC50 in MDA-MB-231, set to 100 nM, divided by IC50 in MKN-45)” value [4] was greater than 167 fold and the “SPECIFICITY FACTOR (IC50 in MDA-MB-231, set to 100 nM, divided by IC50 in SK-CO-1)” value [4] was greater than 632 fold. For the same binder, the “SPECIFICITY FACTOR (IC50 in MDA-MB-231, set to 100 nM, divided by IC50 in SNU-16)” value [4] was greater than 207 fold.

B5: Rituximab (antibody, human IgG1, kappa, V domains shown)
VH: QVQLQQPGAELVKPGASVKMSCKASGYTFTSYNMHWVKQTPGRGLEWIGAIYPGNGDTSYNQKFKGKATLTADKSSSTAYMQLSSLTSEDSAVYYCARSTYYGGDWYFNVWGAGTTVTVSA
VL: QIVLSQSPAILSASPGEKVTMTCRASSSVSYIHWFQQKPGSSPKPWIYATSNLASGVPVRFSGSGSGTSYSLTISRVEAEDAATYYCQQWTSNPPTFGGGTKLEIKR
notes: also called mAb4-M; anti-CD20 control antibody
B5: no binding (tested: 2000 nM) [5].

B6: hmn-14 (hMN14, antibody of labetuzumab govitecan) (antibody, human IgG1, kappa, V domains shown)
VH: EVQLVESGGGVVQPGRSLRLSCSASGFDFTTYWMSWVRQAPGKGLEWIGEIHPDSSTINYAPSLKDRFTISRDNAKNTLFLQMDSLRPEDTGVYFCASLYFGFPWFAYWGQGTPVTVSS
VL: DIQLTQSPSSLSASVGDRVTITCKASQDVGTSVAWYQQKPGKAPKLLIYWTSTRHTGVPSRFSGSGSGTDFTFTISSLQPEDIATYYCQQYSLYRSFGQGTKVEIKR
In the case of B6, the EC50 [6] is reported as 11800 pM.

B7: Variant 1 (VH1.00/VL1.00) (antibody, V domains shown)
VH: EVQLQESGPGLVKPSQTLSLTCTVSDGSVSRGGYYLTWIRQHPGKGLEWIGYIYYSGSTYFNPSLRSRLTMSVDTSKNQFSLKLSSVTAADTAVYYCARGIAVAPFDYWGQGTLVTVSS
VL: ETTLTQSPATLSVSPGERATLSCRTSQSVRSNLAWYQQKPGQAPRLLIYAASTRATGIPARFSGSGSGTEFTLTIGSLQSEDFAVYFCQQYTNWPFTFGPGTKVEIKR
notes: also called optimized antibody Variant 1
B7: binds [7].

B8: Variant 6 (VH1.02/VL1.00) (antibody, V domains shown)
VH: B7 VH with L69V
VL: B7 VL
notes: also called optimized antibody Variant 6
B8: binds [7].
